The text below walks through data of patent US20230220042A1 (SHANGHAI JIAO TONG UNIVERSITY SCHOOL OF MEDICINE, published 2023).

T1: Biotin-FcγRIIB (human, UniProt P31994 43-217, limits assumed, biotin label)
T1 construct: Soluble labelled protein used to stain and sort the display cells; also called human FcγRIIB; CD32b
T1 sequence (looked up): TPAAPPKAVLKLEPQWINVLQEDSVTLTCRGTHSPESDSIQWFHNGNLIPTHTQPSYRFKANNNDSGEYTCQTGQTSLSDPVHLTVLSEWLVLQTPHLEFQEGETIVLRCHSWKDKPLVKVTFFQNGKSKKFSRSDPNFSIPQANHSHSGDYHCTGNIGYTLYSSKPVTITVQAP

B1: human IgG2 anti-mouse CD40 surface displayed antibody, V266L/S267E/E269K/P271G (antibody, name in EU numbering)
light chain (with the P2A rest): DTVLTQSPALAVSPGERVTISCRASDSVSTLMHWYQQKPGQQPKLLIYLASHLESGVPARFSGSGSGTDFTLTIDPVEADDTATYYCQQSWNDPWTFGGGTKLELKRTVAAPSVFIFPPSDEQLKSGTASVVCLLNNFYPREAKVQWKVDNALQSGNSQESVTEQDSKDSTYSLSSTLTLSKADYEKHKVYACEVTHQGLSSPVTKSFNRGECGSGATNFSLLKQAGDVEENPG
heavy chain: EVQLVESDGGLVQPGRSLKLPCAASGFTFSDYYMAWVRQAPTKGLEWVASISYDGSSTYYRDSVKGRFTISRDNAKSTLYLQMDSLRSEDTATYYCGRHSSYFDYWGQGVMVTVSSASTKGPSVFPLAPCSRSTSESTAALGCLVKDYFPEPVTVSWNSGALTSGVHTFPAVLQSSGLYSLSSVVTVPSSNFGTQTYTCNVDHKPSNTKVDKTVERKCCVECPPCPAPPVAGPSVFLFPPKPKDTLMISRTPEVTCVVVDLEHKDGEVQFNWYVDGVEVHNAKTKPREEQFNSTFRVVSVLTVVHQDWLNGKEYKCKVSNKGLPAPIEKTISKTKGQPREPQVYTLPPSREEMTKNQVSLTCLVKGFYPSDIAVEWESNGQPENNYKTTPPMLDSDGSFFLYSKLTVDKSRWQQGNVFSCSVMHEALHNHYTQKSLSLSPGKLEPPPSTVSNMATVAVLVVLGAAIVTGAVVAFVMKMRRRNTGGKGGDYALAPGSQTSDLSLPDCKVMVHDPHSLA
notes: As m1 with the Fc mutations
B2: human IgG2 anti-mouse CD40 surface displayed antibody, V266L/S267E/H268S/E269G/P271T (antibody, name in EU numbering)
light chain (with the P2A rest): DTVLTQSPALAVSPGERVTISCRASDSVSTLMHWYQQKPGQQPKLLIYLASHLESGVPARFSGSGSGTDFTLTIDPVEADDTATYYCQQSWNDPWTFGGGTKLELKRTVAAPSVFIFPPSDEQLKSGTASVVCLLNNFYPREAKVQWKVDNALQSGNSQESVTEQDSKDSTYSLSSTLTLSKADYEKHKVYACEVTHQGLSSPVTKSFNRGECGSGATNFSLLKQAGDVEENPG
heavy chain: EVQLVESDGGLVQPGRSLKLPCAASGFTFSDYYMAWVRQAPTKGLEWVASISYDGSSTYYRDSVKGRFTISRDNAKSTLYLQMDSLRSEDTATYYCGRHSSYFDYWGQGVMVTVSSASTKGPSVFPLAPCSRSTSESTAALGCLVKDYFPEPVTVSWNSGALTSGVHTFPAVLQSSGLYSLSSVVTVPSSNFGTQTYTCNVDHKPSNTKVDKTVERKCCVECPPCPAPPVAGPSVFLFPPKPKDTLMISRTPEVTCVVVDLESGDTEVQFNWYVDGVEVHNAKTKPREEQFNSTFRVVSVLTVVHQDWLNGKEYKCKVSNKGLPAPIEKTISKTKGQPREPQVYTLPPSREEMTKNQVSLTCLVKGFYPSDIAVEWESNGQPENNYKTTPPMLDSDGSFFLYSKLTVDKSRWQQGNVFSCSVMHEALHNHYTQKSLSLSPGKLEPPPSTVSNMATVAVLVVLGAAIVTGAVVAFVMKMRRRNTGGKGGDYALAPGSQTSDLSLPDCKVMVHDPHSLA
notes: As m1 with the Fc mutations
B3: human IgG2 anti-mouse CD40 surface displayed antibody, V266L/S267E/H268S/E269A/P271C (antibody, name in EU numbering)
light chain (with the P2A rest): DTVLTQSPALAVSPGERVTISCRASDSVSTLMHWYQQKPGQQPKLLIYLASHLESGVPARFSGSGSGTDFTLTIDPVEADDTATYYCQQSWNDPWTFGGGTKLELKRTVAAPSVFIFPPSDEQLKSGTASVVCLLNNFYPREAKVQWKVDNALQSGNSQESVTEQDSKDSTYSLSSTLTLSKADYEKHKVYACEVTHQGLSSPVTKSFNRGECGSGATNFSLLKQAGDVEENPG
heavy chain: EVQLVESDGGLVQPGRSLKLPCAASGFTFSDYYMAWVRQAPTKGLEWVASISYDGSSTYYRDSVKGRFTISRDNAKSTLYLQMDSLRSEDTATYYCGRHSSYFDYWGQGVMVTVSSASTKGPSVFPLAPCSRSTSESTAALGCLVKDYFPEPVTVSWNSGALTSGVHTFPAVLQSSGLYSLSSVVTVPSSNFGTQTYTCNVDHKPSNTKVDKTVERKCCVECPPCPAPPVAGPSVFLFPPKPKDTLMISRTPEVTCVVVDLESADCEVQFNWYVDGVEVHNAKTKPREEQFNSTFRVVSVLTVVHQDWLNGKEYKCKVSNKGLPAPIEKTISKTKGQPREPQVYTLPPSREEMTKNQVSLTCLVKGFYPSDIAVEWESNGQPENNYKTTPPMLDSDGSFFLYSKLTVDKSRWQQGNVFSCSVMHEALHNHYTQKSLSLSPGKLEPPPSTVSNMATVAVLVVLGAAIVTGAVVAFVMKMRRRNTGGKGGDYALAPGSQTSDLSLPDCKVMVHDPHSLA
notes: As m1 with the Fc mutations
B4: human IgG2 anti-mouse CD40 surface displayed antibody, V266L/S267E/H268S/E269V (antibody, name in EU numbering)
light chain (with the P2A rest): DTVLTQSPALAVSPGERVTISCRASDSVSTLMHWYQQKPGQQPKLLIYLASHLESGVPARFSGSGSGTDFTLTIDPVEADDTATYYCQQSWNDPWTFGGGTKLELKRTVAAPSVFIFPPSDEQLKSGTASVVCLLNNFYPREAKVQWKVDNALQSGNSQESVTEQDSKDSTYSLSSTLTLSKADYEKHKVYACEVTHQGLSSPVTKSFNRGECGSGATNFSLLKQAGDVEENPG
heavy chain: EVQLVESDGGLVQPGRSLKLPCAASGFTFSDYYMAWVRQAPTKGLEWVASISYDGSSTYYRDSVKGRFTISRDNAKSTLYLQMDSLRSEDTATYYCGRHSSYFDYWGQGVMVTVSSASTKGPSVFPLAPCSRSTSESTAALGCLVKDYFPEPVTVSWNSGALTSGVHTFPAVLQSSGLYSLSSVVTVPSSNFGTQTYTCNVDHKPSNTKVDKTVERKCCVECPPCPAPPVAGPSVFLFPPKPKDTLMISRTPEVTCVVVDLESVDPEVQFNWYVDGVEVHNAKTKPREEQFNSTFRVVSVLTVVHQDWLNGKEYKCKVSNKGLPAPIEKTISKTKGQPREPQVYTLPPSREEMTKNQVSLTCLVKGFYPSDIAVEWESNGQPENNYKTTPPMLDSDGSFFLYSKLTVDKSRWQQGNVFSCSVMHEALHNHYTQKSLSLSPGKLEPPPSTVSNMATVAVLVVLGAAIVTGAVVAFVMKMRRRNTGGKGGDYALAPGSQTSDLSLPDCKVMVHDPHSLA
notes: As m1 with the Fc mutations

The assay concerns the target T1, Biotin-FcγRIIB. Put plainly: NGS of 3T3 display library C2 flow-sorted for FcγRIIB binding.
In the case of B1, the “enrichment factor, percentage after 1st sorting/percentage before sorting” value is 214 ratio; the “enrichment factor, percentage after 2nd sorting/percentage after 1st sorting” value came to 2.92 ratio; the “enrichment factor, percentage after 3rd sorting/percentage after 2nd sorting” value turned out to be 2.94 ratio; the “enrichment factor, percentage after 3rd sorting/percentage before sorting” value was 1840 ratio. For the same molecule, the “increased factor, mutant enrichment factor/wild-type enrichment factor” value was determined as 1310 ratio; the “percentage after 1st sorting” value stood at 0.14%; the “percentage after 2nd sorting” value was 0.42%; the “percentage after 3rd sorting” value came out at 1.22%. This molecule had a percentage before sorting of 0%.
For B2, the “enrichment factor, percentage after 1st sorting/percentage before sorting” value was 32.7 ratio; the “enrichment factor, percentage after 2nd sorting/percentage after 1st sorting” value came out at 9.34 ratio; the “enrichment factor, percentage after 3rd sorting/percentage after 2nd sorting” value was 5.2 ratio; the “enrichment factor, percentage after 3rd sorting/percentage before sorting” value was found to be 1590 ratio. For the same molecule, the “increased factor, mutant enrichment factor/wild-type enrichment factor” value came out at 1130 ratio; the “percentage after 1st sorting” value was 0.03%; the “percentage after 2nd sorting” value turned out to be 0.24%; the “percentage after 3rd sorting” value turned out to be 1.23%. The same molecule came in with a percentage before sorting of 0%.
Turning to B3, the “enrichment factor, percentage after 1st sorting/percentage before sorting” value was 60.5 ratio; the “enrichment factor, percentage after 2nd sorting/percentage after 1st sorting” value turned out to be 3.84 ratio; the “enrichment factor, percentage after 3rd sorting/percentage after 2nd sorting” value stood at 7.11 ratio; the “enrichment factor, percentage after 3rd sorting/percentage before sorting” value is 1650 ratio. Besides, the “increased factor, mutant enrichment factor/wild-type enrichment factor” value was found to be 1180 ratio; the “percentage after 1st sorting” value amounted to 0.25%; the “percentage after 2nd sorting” value was 0.95%; the “percentage after 3rd sorting” value was determined as 6.76%. Moreover, the percentage before sorting is 0%.
As to B4, the “enrichment factor, percentage after 1st sorting/percentage before sorting” value turned out to be 99.9 ratio; the “enrichment factor, percentage after 2nd sorting/percentage after 1st sorting” value turned out to be 12.8 ratio; the “enrichment factor, percentage after 3rd sorting/percentage after 2nd sorting” value was found to be 1.95 ratio; the “enrichment factor, percentage after 3rd sorting/percentage before sorting” value was determined as 2500 ratio. The “increased factor, mutant enrichment factor/wild-type enrichment factor” value turned out to be 1780 ratio; the “percentage after 1st sorting” value amounted to 0.17%; the “percentage after 2nd sorting” value amounted to 2.13%; the “percentage after 3rd sorting” value came to 4.15%. In addition, the percentage before sorting was 0%.
